Measurements: patent US20090181894A1

Biological target: GnRH binding sites on neoplastic cells (plasma membranes of the SW-48 colon adenocarcinoma cell line in the binding assay)
Assay: binding of 125I-GnRH to plasma membranes of SW-48 cells, filter assay

**Q.** For “125I-GnRH (from UniProt P01148) (peptide)”, which non-specific binding is on record?
**A.** 37%
